The labels stand for the following.
B1: HDV Ribozyme (parent)
chain: GGCCGGCAUGGUCCCAGCCUCCUCGCUGGCGCCGGCUGGGCAACAUUCCGAGGGGACCGUCCCCUCGGUAAUGGCGAAUGGGACCCA

The series covers variants of B1. Put plainly: self-cleavage, relative activity (ratio to wild type); higher = more cleavage; co-transcriptional.
Turning to GGCCGGCAUGGUCCCAGCCCCCUCGCUGGCGCCGGCUGGGCAACAUUCCGAGGGCACCGUCCCCUCGGUAAUGGCGAAUGGGACCCA [U20C G55C], the self-cleavage amounted to 0.0791.
To GGCCGGCAUGGUCCCAGCCCCCUCGCUGGCGCCGGCUGGGCAACAUUCCGAGGGGACCGUCCCCUCGGUAAUGGCGAACGGGACCCA [U20C U79C] belongs 0.0845; to GGCCGGCAUGGUCCCAGCCCCCUCGCUGGCGCCGGCUGGGCAACAUGCCGAGGGGACCGUCCCCUCGGUAAUGGCGAAUGGGACCCA [U20C U47G], 0; to GGCCGGCAUGGUCCCAGCCGCCUCGCUGGCGCCGGCUGGGCAACAUUCCGAGGGGACCGUUCCCUCGGUAAUGGCGAAUGGGACCCA [U20G C61U], 0.131.
The same measure for GGCCGGCAUGGUCCCAGCCCCCUCGCUGGCGCCGGGUGGGCAACAUUCCGAGGGGACCGUCCCCUCGGUAAUGGCGAAUGGGACCCA [U20C C36G]: 0.111; for GGCCGGCAUGGUCCCAGCCCCCUCGCUGGCGCCGGCUGGGCAACAUUCCGAGGGGACAGUCCCCUCGGUAAUGGCGAAUGGGACCCA [U20C C58A]: 0.0875; for GGCCGGCAUGGUCCCAGCCGCCUCGCUGGCGCCGGCUGGGCAACAUUCCGAGGGGUCCGUCCCCUCGGUAAUGGCGAAUGGGACCCA [U20G A56U]: 0.178.
The same measure for GGCCGGCAUGGUCCCAGCCGCCUCGCUGGCGCCGGAUGGGCAACAUUCCGAGGGGACCGUCCCCUCGGUAAUGGCGAAUGGGACCCA [U20G C36A]: 0; for GGCCGGCAUGGUCCCAGCCCCCUCGCUGGCGCCGGCUGGGCAACAUUCCGAGGGGACCGUCCCUUCGGUAAUGGCGAAUGGGACCCA [U20C C64U]: 0.244; for GGCCGGCAUGGUCCCAGCCCCCUCGCUGGCGCCGGCUGGGCAACAUUCCGAGGGGACCGUCCCCUCGGUAAUGGCGAAUUGGACCCA [U20C G80U]: 0.0625.
Regarding GGCCGGCAUGGUCCCAGCCGCCUCGCUGGCGCCGGCUGGGCAACAUUCCGAGGGGACCGUCCCCUCGGUAGUGGCGAAUGGGACCCA [U20G A71G], the self-cleavage was determined as 0.196.
To GGCCGGCAUGGUCCCAGCCGCCUCGCUGGCGCCGGCUGGGCAACAUUCCGAGGGGACCGUCCCCUCGGUACUGGCGAAUGGGACCCA [U20G A71C] belongs 0; to GGCCGGCAUGGUCCCAGCCCCCUCGCUGGCGCCGGCUGGGCAACAUUCCGAGGGGACCGUCCCCUCGGUAACGGCGAAUGGGACCCA [U20C U72C], 0.0755.
For the variant GGCCGGCAUGGUCCCAGCCCCCUCGCUGGCGCCGGCUGGGCAACAUUCCGAGGGGACCGUCCCCUCGGUAAAGGCGAAUGGGACCCA [U20C U72A], the self-cleavage was 0.123.
The same measure for GGCCGGCAUGGUCCCAGCCGCCUCGCUGGCGCCGGCUGGGCAACAUUCCGAGGGGACGGUCCCCUCGGUAAUGGCGAAUGGGACCCA [U20G C58G]: 0.266; for GGCCGGCAUGGUCCCAGCCGCCUCGCUGGCGCCGGCUGGGCAACAUUCCGAGGGGACUGUCCCCUCGGUAAUGGCGAAUGGGACCCA [U20G C58U]: 0.237.
On to GGCCGGCAUGGUCCCAGCCGCCUCGCUGGCGCCGGCUGGGCAGCAUUCCGAGGGGACCGUCCCCUCGGUAAUGGCGAAUGGGACCCA [U20G A43G], for which the self-cleavage turned out to be 0.104.
The same measure for GGCCGGCAUGGUCCCAGCCGCCUCGCUGGCGCCGGCUGGGCAACAUUCCGAGGGGACCGUCACCUCGGUAAUGGCGAAUGGGACCCA [U20G C62A]: 0.312; for GGCCGGCAUGGUCCCAGCCGCCUCGCUGGCGCCGGCUGGGCAACAUUCCGAGGGGACCGUCCCCUCGGUAAUGGCGAAUGGGACCCU [U20G A87U]: 0.158; for GGCCGGCAUGGUCCCAGCCCCGUCGCUGGCGCCGGCUGGGCAACAUUCCGAGGGGACCGUCCCCUCGGUAAUGGCGAAUGGGACCCA [U20C C22G]: 0.0554.
To GGCCGGCAUGGUCCCAGCCCCAUCGCUGGCGCCGGCUGGGCAACAUUCCGAGGGGACCGUCCCCUCGGUAAUGGCGAAUGGGACCCA [U20C C22A] belongs 0.119.
The same measure for GGCCGGCAUGGUCCCAGCCCCCUCGGUGGCGCCGGCUGGGCAACAUUCCGAGGGGACCGUCCCCUCGGUAAUGGCGAAUGGGACCCA [U20C C26G]: 0.0923; for GGCCGGCAUGGUCCCAGCCGCCUCGCUGGCGCCGGCUGGGCAACAUUCUGAGGGGACCGUCCCCUCGGUAAUGGCGAAUGGGACCCA [U20G C49U]: 0.185; for GGCCGGCAUGGUCCCAGCCGCCUCGCUGGCGCCGGCUGGGCAACAUUCGGAGGGGACCGUCCCCUCGGUAAUGGCGAAUGGGACCCA [U20G C49G]: 0.361.
Regarding GGCCGGCAUGGUCCCAGCCGCCUCGCUGGCGCCGGCUGGGCAACAUUCAGAGGGGACCGUCCCCUCGGUAAUGGCGAAUGGGACCCA [U20G C49A], the self-cleavage is 0.308.
The same measure for GGCCGGCAUGGUCCCAGCCCCCUCGCUGGCGCCGGCUGGGCAACAUUCCGAGGGGAGCGUCCCCUCGGUAAUGGCGAAUGGGACCCA [U20C C57G]: 0.0723; for GGCCGGCAUGGUCCCAGCCGCCUCGCUGGCGCUGGCUGGGCAACAUUCCGAGGGGACCGUCCCCUCGGUAAUGGCGAAUGGGACCCA [U20G C33U]: 0.0852; for GGCCGGCAUGGUCCCAGCCCCCUCGCUGGCGCCGGCUGGGCAACAUUCCGAGGGGACCGUCCCCUCGGUAAUGCCGAAUGGGACCCA [U20C G74C]: 0.107.
To GGCCGGCAUGGUCCCAGCCCCCUCGCUGUCGCCGGCUGGGCAACAUUCCGAGGGGACCGUCCCCUCGGUAAUGGCGAAUGGGACCCA [U20C G29U] belongs 0.0519; to GGCCGGCAUGGUCCCAGCCCCCUCGCUGGGGCCGGCUGGGCAACAUUCCGAGGGGACCGUCCCCUCGGUAAUGGCGAAUGGGACCCA [U20C C30G], 0.447; to GGCCGGCAUGGUCCCAGCCCCCUCGCUGGCGCCGGCUGGGCAACAUUCCGAGGGGACCGUCCCCUAGGUAAUGGCGAAUGGGACCCA [U20C C66A], 0.135.
As to GGCCGGCAUGGUCCCAGCCCCCUCGCUGGCGCCGGCUGGGCAACAUUCCGAGGGGACCGUCCCCUUGGUAAUGGCGAAUGGGACCCA [U20C C66U], the self-cleavage turned out to be 0.0831.
